Like-named read-outs stand apart in the source and are kept apart here.
Key:
[1] = molecular target: H3KC36me3 nucleosomes (recombinant MLA nucleosomes reconstituted on 601 DNA) (Drosophila) (UniProt P02299); experiment: native gel or EMSA; 1.5 or 3 pmol reconstituted nucleosome with 0, 0.5, 1, 2 and 3 molar equivalents of glutathione agarose purified GST-PWWP protein; 0.2X TBE, 4°C, native 5% gel, ethidium bromide; band densities fitted to a 2:1 model
GST-PSIP1-PWWP (human) = experiment: EMSA; settings: histone H3KC36me3 (methyl-lysine analogue); EMSA: 0.2X TBE, 4 C, 1.5 or 3 pmol nucleosome in 8 uL, up to 3 molar equivalents of protein, native 5% gel; NMR: 293 K (DNA titration), 308 K (nucleosome …)
PSIP1-PWWP (human) [2] = experiment: NMR methyl-TROSY line shape fit; settings: 308 K; 1:2 nucleosome:PWWP model; koff 500 s-1; histone H3KC36me3 (methyl-lysine analogue); EMSA: 0.2X TBE, 4 C, 1.5 or 3 pmol nucleosome in 8 uL, up to 3 molar equivalents of protein, native 5% gel; NMR: 293 K (DNA titration), 308 K (nucleosome …)
[3] = molecular target: PSIP1-PWWP domain (residues 3 to 100, GST removed by thrombin) (human) (UniProt O75475); experiment: NMR titration; 1H-15N HSQC of 0.3 mM PWWP, peptide added; 20 mM NaPi pH 7.0, 100 mM NaCl, 293 K, 600 MHz; chemical shift perturbation curves fitted in fast exchange
Sequence of PSIP1-PWWP domain (residues 3 to 100, GST removed by thrombin) (human) (O75475 3-100): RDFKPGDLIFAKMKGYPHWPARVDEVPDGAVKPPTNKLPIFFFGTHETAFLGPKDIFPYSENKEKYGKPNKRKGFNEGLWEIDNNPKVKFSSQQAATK

[4] = molecular target: H3KC36me3 nucleosomes (recombinant MLA nucleosomes reconstituted on 601 DNA) (Drosophila) (UniProt P02299)
PSIP1-PWWP (human) [5] = experiment: NMR titration (1H-15N HSQC CSP); settings: EMSA: 0.2X TBE, 4 C, 1.5 or 3 pmol nucleosome in 8 uL, up to 3 molar equivalents of protein, native 5% gel; NMR: 293 K (DNA titration), 308 K (nucleosome …)

Sequence of GST-PWWP (PSIP1-PWWP domain, residues 3 to 100, GST fusion) (O75475 3-100): as above
Sequence of PSIP1-PWWP domain (residues 3 to 100, GST removed by thrombin) (O75475 3-100): as above

Substance: GST-PWWP (PSIP1-PWWP domain, residues 3 to 100, GST fusion) (from UniProt O75475 3-100) (domain or fragment)
- Kd [1]: 0.5 µM

Substance: H3KC36me3 MLA nucleosome on 601 DNA
- Kd (GST-PSIP1-PWWP (human)): 0.5 µM
- Kd (PSIP1-PWWP (human) [2]): 1.5 µM

Substance: H3KC36me3 peptide (NMR titration)
- Kd [3]: 11000 µM

Substance: PSIP1-PWWP domain (residues 3 to 100, GST removed by thrombin) (from UniProt O75475 3-100) (domain or fragment)
- Kd [4]: 1.5 µM

Substance: SRE-DNA dsDNA fragment
- Kd (PSIP1-PWWP (human) [5]): 150 µM
